The target of series [1] is T1, Unr CSD789 wild type (Drosophila, UniProt B7Z0E2 756-990).
T1 sequence: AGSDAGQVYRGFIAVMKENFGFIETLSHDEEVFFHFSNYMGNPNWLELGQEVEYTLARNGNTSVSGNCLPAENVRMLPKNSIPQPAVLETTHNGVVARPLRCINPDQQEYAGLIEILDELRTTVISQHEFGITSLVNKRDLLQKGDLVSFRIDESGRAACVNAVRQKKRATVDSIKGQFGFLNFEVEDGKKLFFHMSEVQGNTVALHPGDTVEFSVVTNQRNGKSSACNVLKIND
The series is described as follows: ITC. For orientation: Isothermal titration calorimetry measures the heat released or taken up as one component is titrated into another.

Series [2] addresses T2, Unr CSD789 Q868A (Drosophila, UniProt B7Z0E2 756-990, Q898A).
T2 sequence: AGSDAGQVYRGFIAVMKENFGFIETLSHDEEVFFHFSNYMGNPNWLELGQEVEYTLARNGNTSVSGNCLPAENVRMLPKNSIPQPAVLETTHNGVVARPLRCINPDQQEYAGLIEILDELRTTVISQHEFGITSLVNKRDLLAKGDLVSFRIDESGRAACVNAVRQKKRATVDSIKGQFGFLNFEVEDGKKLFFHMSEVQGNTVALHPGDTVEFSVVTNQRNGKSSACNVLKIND
Nature of the series: fluorescence polarization. Background: Polarisation of emitted light reports the rotation of a fluorescent probe.

In series [3] the target is T3, Unr CSD789 E786A/R856A/P860A (ERPmut) (Drosophila, UniProt B7Z0E2 756-990, E786A;R856A;P860A).
T3 sequence: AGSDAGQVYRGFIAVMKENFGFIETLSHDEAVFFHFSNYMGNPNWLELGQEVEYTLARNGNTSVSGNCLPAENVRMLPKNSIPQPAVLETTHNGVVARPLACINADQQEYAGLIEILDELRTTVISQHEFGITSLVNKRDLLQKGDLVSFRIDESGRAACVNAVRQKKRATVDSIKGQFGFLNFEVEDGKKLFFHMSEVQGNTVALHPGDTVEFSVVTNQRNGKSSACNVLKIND
Nature of the series: fluorescence polarization.

The target of series [4] is T4, Unr CSD789 K979A (Drosophila, UniProt B7Z0E2 756-990, K979A).
T4 sequence: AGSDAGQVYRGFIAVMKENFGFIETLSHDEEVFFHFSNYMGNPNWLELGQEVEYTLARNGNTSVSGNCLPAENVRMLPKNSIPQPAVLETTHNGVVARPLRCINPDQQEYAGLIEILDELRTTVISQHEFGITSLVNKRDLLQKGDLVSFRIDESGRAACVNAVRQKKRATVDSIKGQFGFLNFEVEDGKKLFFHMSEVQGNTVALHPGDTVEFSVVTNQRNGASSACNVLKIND
Nature of the series: fluorescence polarization.

For series [5], the target named is T5, Unr CSD789 E786A (Drosophila, UniProt B7Z0E2 756-990, E786A).
T5 sequence: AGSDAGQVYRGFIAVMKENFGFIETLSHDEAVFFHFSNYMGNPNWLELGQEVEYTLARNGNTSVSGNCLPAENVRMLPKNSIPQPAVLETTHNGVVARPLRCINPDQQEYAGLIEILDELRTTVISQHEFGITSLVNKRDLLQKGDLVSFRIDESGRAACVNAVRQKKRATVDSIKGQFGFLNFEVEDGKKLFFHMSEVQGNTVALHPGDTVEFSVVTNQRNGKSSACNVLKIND
Nature of the series: fluorescence polarization.

The target of series [6] is T6, Unr CSD789 Q975A (Drosophila, UniProt B7Z0E2 756-990, Q975A).
T6 sequence: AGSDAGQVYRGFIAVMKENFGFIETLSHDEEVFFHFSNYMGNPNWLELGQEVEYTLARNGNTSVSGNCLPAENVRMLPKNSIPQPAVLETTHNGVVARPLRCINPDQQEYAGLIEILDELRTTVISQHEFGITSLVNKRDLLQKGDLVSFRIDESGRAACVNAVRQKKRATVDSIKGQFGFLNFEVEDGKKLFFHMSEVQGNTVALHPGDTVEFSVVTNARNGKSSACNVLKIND
Nature of the series: fluorescence polarization.

For series [7], the target named is T7, Unr CSD789 R856A (Drosophila, UniProt B7Z0E2 756-990, R856A).
T7 sequence: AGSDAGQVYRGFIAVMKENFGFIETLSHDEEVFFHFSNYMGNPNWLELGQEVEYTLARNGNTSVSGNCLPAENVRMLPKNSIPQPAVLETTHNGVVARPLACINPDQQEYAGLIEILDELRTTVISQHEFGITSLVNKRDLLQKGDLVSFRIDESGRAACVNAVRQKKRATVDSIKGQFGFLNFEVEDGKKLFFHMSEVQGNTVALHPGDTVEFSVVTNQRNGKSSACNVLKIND
Nature of the series: fluorescence polarization.

Series [8] has as its target T1, Unr CSD789 wild type. Nature of the series: fluorescence polarization.
In series [9] the target is T8, Unr CSD789 N977A (Drosophila, UniProt B7Z0E2 756-990, N977A).
T8 sequence: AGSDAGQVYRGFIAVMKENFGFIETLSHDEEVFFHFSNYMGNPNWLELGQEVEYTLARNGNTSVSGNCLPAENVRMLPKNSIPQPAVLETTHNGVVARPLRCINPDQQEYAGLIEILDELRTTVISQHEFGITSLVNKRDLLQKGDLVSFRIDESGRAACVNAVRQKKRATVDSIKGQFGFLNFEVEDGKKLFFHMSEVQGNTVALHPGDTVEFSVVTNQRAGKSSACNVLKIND
The series is described as follows: fluorescence polarization.

The target in series [10] is T9, Unr CSD789 R976A (Drosophila, UniProt B7Z0E2 756-990, R976A).
T9 sequence: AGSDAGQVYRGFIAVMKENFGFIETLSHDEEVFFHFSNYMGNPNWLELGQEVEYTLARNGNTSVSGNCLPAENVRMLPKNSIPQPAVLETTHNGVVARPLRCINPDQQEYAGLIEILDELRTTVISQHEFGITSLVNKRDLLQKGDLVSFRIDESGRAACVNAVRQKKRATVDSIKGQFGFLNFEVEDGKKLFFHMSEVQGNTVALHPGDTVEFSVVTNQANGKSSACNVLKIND
The series is described as follows: fluorescence polarization.

Series [11] has as its target T10, Unr CSD789 P860A (Drosophila, UniProt B7Z0E2 756-990, P860A).
T10 sequence: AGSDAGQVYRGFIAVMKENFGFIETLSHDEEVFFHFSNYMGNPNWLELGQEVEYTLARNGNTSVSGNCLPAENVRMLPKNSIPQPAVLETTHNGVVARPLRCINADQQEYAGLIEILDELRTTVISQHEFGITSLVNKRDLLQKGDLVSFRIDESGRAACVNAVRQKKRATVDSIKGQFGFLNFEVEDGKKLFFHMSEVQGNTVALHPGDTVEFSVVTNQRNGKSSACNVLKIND
Nature of the series: fluorescence polarization.

The target in series [12] is pAbp RRM3 (Drosophila, UniProt P21187 176-263). Nature of the series: NMR titration.
In series [13] the target is T1, Unr CSD789 wild type. The series is described as follows: NMR titration.

Consider six molecules from paper PMC9976900.

A word on the Kd: it is the equilibrium constant for the complex coming apart. A high value points to a looser complex.

Sequence of pAbp RRM3 (P21187 176-263): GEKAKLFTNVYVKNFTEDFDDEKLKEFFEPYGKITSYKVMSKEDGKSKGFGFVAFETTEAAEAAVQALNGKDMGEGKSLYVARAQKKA

B1: A9-mer (ssRNA)
RNA: AAAAAAAAA
With B1, the Kd in [1] was determined as 4.3 ± 1.3 µM.

B2: A15-mer, 3' labelled (ssRNA)
RNA: AAAAAAAAAAAAAAA
B2: the Kd in series [2] was 61 ± 12.1 µM; in series [3], around 94.7 µM; in series [4], 160 ± 57.6 µM; in series [5] it was 50.1 ± 6.4 µM; in series [6], 38.2 ± 8.7 µM; in series [7], 72.4 ± 11 µM. In addition, the Kd in series [8] was 21.1 ± 3.6 µM; in series [9] it was 71.2 ± 12.5 µM; in series [10], 161 ± 51.2 µM; in [11], 67.2 ± 7.9 µM.

B3: A5-mer (ssRNA)
RNA: AAAAA
For the molecule B3, the binding result in series [12] is “binds”. The same molecule returned a Kd in series [13] of 127 ± 16.6 µM.

B4: A8-mer (ssRNA)
RNA: AAAAAAAA
On to B4, for which, in [1], the Kd stood at 4.4 ± 2.7 µM. The binding result in [12] is “binds”.

B5: A7-mer (ssRNA)
RNA: AAAAAAA
In turn, B5 came in with a Kd in [1] of 17.7 ± 5.2 µM.

B6: A15-mer (ssRNA)
RNA: AAAAAAAAAAAAAAA
Regarding B6, the Kd was determined as 4.8 ± 0.8 µM in [1] and 8 ± 1.5 µM in [13].
